# Laboratory results: patent US8309097B2, “C-type lectin binding molecules, identification and uses thereof” (Vereniging voor Christelijk Wetenschappelijk Onderwijs, priority 2002, dated 2012)
# B1: CEACAM1: native CEACAM1 (CD66) from PMN (protein, UniProt P13688 35-526, looked up)
# Cell adhesion molecule CEACAM1: QLTTESMPFNVAEGKEVLLLVHNLPQQLFGYSWYKGERVDGNRQIVGYAIGTQQATPGPANSGRETIYPNASLLIQNVTQNDTGFYTLQVIKSDLVNEEATGQFHVYPELPKPSISSNNSNPVEDKDAVAFTCEPETQDTTYLWWINNQSLPVSPRLQLSNGNRTLTLLSVTRNDTGPYECEIQNPVSANRSDPVTLNVTYGPDTPTISPSDTYYRPGANLSLSCYAASNPPAQYSWLINGTFQQSTQELFIPNITVNNSGSYTCHANNSVTGCNRTTVKTIIVTELSPVVAKPQIKASKTTVTGDKDSVNLTCSTNDTGISIRWFFKNQSLPSSERMKLSQGNTTLSINPVKREDAGTYWCEVFNPISKNQSDPIMLNVNYNALPQENGLSPGAIAGIVIGVVALVALIAVALACFLHFGKTGRASDQRDLTEHKPSVSNHTQDHSNDPPNKMNEVTYSTLNFEAQQPTQPTSASPSLTATEIIYSEVKKQ
# B2: RNAseB: control inhibitor in DC adhesion assay (protein, UniProt P61823 27-150, looked up)
# Ribonuclease pancreatic: KETAAAKFERQHMDSSTSAASSSNYCNQMMKSRNLTKDRCKPVNTFVHESLADVQAVCSQKNVACKNGQTNCYQSYSTMSITDCRETGSSKYPNCAYKTTQANKHIIVACEGNPYVPVHFDASV
# modifications: glycoform B
# B3: CD66e: tumor antigen CEA from SW948 tumor cell lysate (protein, UniProt P06731 35-685, looked up)
# Cell adhesion molecule CEACAM5: KLTIESTPFNVAEGKEVLLLVHNLPQHLFGYSWYKGERVDGNRQIIGYVIGTQQATPGPAYSGREIIYPNASLLIQNIIQNDTGFYTLHVIKSDLVNEEATGQFRVYPELPKPSISSNNSKPVEDKDAVAFTCEPETQDATYLWWVNNQSLPVSPRLQLSNGNRTLTLFNVTRNDTASYKCETQNPVSARRSDSVILNVLYGPDAPTISPLNTSYRSGENLNLSCHAASNPPAQYSWFVNGTFQQSTQELFIPNITVNNSGSYTCQAHNSDTGLNRTTVTTITVYAEPPKPFITSNNSNPVEDEDAVALTCEPEIQNTTYLWWVNNQSLPVSPRLQLSNDNRTLTLLSVTRNDVGPYECGIQNELSVDHSDPVILNVLYGPDDPTISPSYTYYRPGVNLSLSCHAASNPPAQYSWLIDGNIQQHTQELFISNITEKNSGLYTCQANNSASGHSRTTVKTITVSAELPKPSISSNNSKPVEDKDAVAFTCEPEAQNTTYLWWVNGQSLPVSPRLQLSNGNRTLTLFNVTRNDARAYVCGIQNSVSANRSDPVTLDVLYGPDTPIISPPDSSYLSGANLNLSCHSASNPSPQYSWRINGIPQQHTQVLFIAKITPNNNGTYACFVSNLATGRNNSIVKSITVSASGTSPGLSA
# B4: ICAM-3: cellular ligand of DC-SIGN (protein)
# chain: QEFLLRVEPQNPVLSAGGSLFVNCSTDCPSSEKIALETSLSKELVASGMGWAAFNLSNVTGNSRILCSVYCNGSQITGSSNITVYRLPERVELAPLPPWQPVGQNFTLRCQVEDGSPRTSLTVVLLRWEEELSRQPAVEEPAEVTATVLASRDDHGAPFSCRTELDMQPQGLGLFVNTSAPRQLRTFVLPVTPPRLVAPRFLEVETSWPVDCTLDGLFPASEAQVYLALGDQMLNATVMNHGDTLTATATATARADQEGAREIVCNVTLGGERREARENLTVFSFLGPIVNLSEPTAHEGSTVTVSCMAGARVQVTLDGVPAAAPGQPAQLQLNATESDDGRSFFCSATLEVDGEFLHRNSSVQLRVLYGPKIDRATCPQHLKWKDKTRHVLQCQARGNPYPELRCLKEGSSREVPVGIPFFVNVTHNGTYQCQASSSRGKYTLVVVMDIEAGSSH
# Experiments:
# DC-SIGN-Fc [1] = molecular target: T1, DC-SIGN-Fc (Homo sapiens, UniProt Q9NNX6); assay: Soluble DC-SIGN-Fc adhesion assay (Fc ELISA); settings: ELISA, ligand coated
# T1 sequence (Q9NNX6 64-404): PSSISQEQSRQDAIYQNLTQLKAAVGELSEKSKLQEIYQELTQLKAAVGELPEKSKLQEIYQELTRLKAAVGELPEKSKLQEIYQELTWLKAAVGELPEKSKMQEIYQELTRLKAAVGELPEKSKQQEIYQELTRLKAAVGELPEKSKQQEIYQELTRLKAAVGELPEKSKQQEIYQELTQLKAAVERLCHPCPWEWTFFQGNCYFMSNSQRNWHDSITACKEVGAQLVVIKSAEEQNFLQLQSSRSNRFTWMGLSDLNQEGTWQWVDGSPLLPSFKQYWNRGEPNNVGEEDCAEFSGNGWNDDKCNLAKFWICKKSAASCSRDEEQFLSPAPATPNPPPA
# [2] = molecular target: T2, DC-SIGN on immature monocyte derived DC (Homo sapiens, UniProt Q9NNX6); assay: Fluorescent bead adhesion assay, immature DC; format: cell-based
# T2 construct: Immature DC were cultured from monocytes in the presence of IL-4 and GM-CSF; endogenous in cells; host or cells: immature monocyte-derived dendritic cells
# T2 sequence (Q9NNX6 1-404): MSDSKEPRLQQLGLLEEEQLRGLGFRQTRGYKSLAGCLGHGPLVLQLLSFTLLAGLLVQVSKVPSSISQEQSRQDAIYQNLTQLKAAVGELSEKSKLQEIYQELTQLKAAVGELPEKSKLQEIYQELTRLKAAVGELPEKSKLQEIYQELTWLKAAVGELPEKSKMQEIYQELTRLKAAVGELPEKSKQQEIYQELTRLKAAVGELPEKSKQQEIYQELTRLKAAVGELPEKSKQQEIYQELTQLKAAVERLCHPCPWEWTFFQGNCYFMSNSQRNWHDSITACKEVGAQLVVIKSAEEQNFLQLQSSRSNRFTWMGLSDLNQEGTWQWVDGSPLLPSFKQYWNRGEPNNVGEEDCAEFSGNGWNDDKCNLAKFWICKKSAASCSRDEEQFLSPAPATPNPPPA
# [3] = molecular target: T3, DC-SIGN expressed by K562 transfectants (Homo sapiens, UniProt Q9NNX6); format: cell-based
# T3 construct: expressed in transfected cells; host or cells: K562
# T3 sequence (Q9NNX6 1-404): T2 sequence (Q9NNX6 1-404)
# DC-SIGN-Fc [4] = molecular target: T1, DC-SIGN-Fc; assay: Immunoprecipitation and detection with DC-SIGN-Fc; format: binding
# Source text: FIG. 59. […] Cell-surface proteins are biotinylated and PMNs are lysed. Lane 1. negative control using ICAM-3 Fc to capture by IP proteins. Detection is peroxidase-labeled streptavidin. Lane 2. DC-SIGN-Fc is used to capture ligands biotinylated ligands from lysate; two protein bands are visible, the upper band consists of CD11b and CD66a, whereas the lower consists of CD18. Lane 3. Negative control; no bands are immune precipitated with anti-DC-SIGN antibodies. Lane 4, IP with antibodies against CD66acd; a faint band is visible containing CD66a. Lane 5, IP of CD11b; two bands are visible; the upper band is […] and the lower band is CD18m, which is co-immuneprecipitated with […]. Lane 6. IP with DC-SIGN ligands and detection with anti-CD66acd; CD66a is captured by DC-SIGN Fc. Lane 7. IP with DC-SIGN ligands and detection with anti-CD11b; CD11b is captured by DC-SIGN Fc. Lane 8. Negative control, IP with anti-DC-SIGN antibodies and detection with DC-SIGN-Fc. Lane 9. IP with anti-CD66acd and detection with DC-SIGN Fc; CD66a is bound by DC-SIGN on blot. Lane 10. IP with anti-CD11a and detection with DC-SIGN Fc; CD11a is bound by DC-SIGN on blot.
# Immunoprecipitation. […]
molecule,measurement,setting,value
B1,binding of DC-SIGN-Fc to coated ligand,DC-SIGN-Fc [1],is a ligand of DC-SIGN
same,binding of ligand-coated beads to immature DC,[2],binds
same,binding of ligand-coated beads to K562 DC-SIGN transfectants,[3],binds
B2,inhibition of HIV-1 gp120 adhesion to DC,[2],does not block
same,inhibition of ICAM-3 adhesion to DC,[2]; inhibitors 20 μg/ml,does not block
B3,binding of DC-SIGN-Fc to coated ligand,DC-SIGN-Fc [1],bound
same,binding of DC-SIGN-Fc to immunoprecipitated ligand,DC-SIGN-Fc [4],binds
same,"binding of DC-SIGN-Fc after α-1,3,4 Fucosidase treatment of the ligand",DC-SIGN-Fc [4]; immunoprecipitation,abrogated
B4,binding of DC-SIGN-Fc to coated ligand,DC-SIGN-Fc [1],does not recognize
